± gives the uncertainty stated by the source.
B1: Connector enhancer of kinase suppressor of ras 2, residues 9 to 71; numbered along this chain, Q8WXI2 (parent)
chain: SKWSPSQVVDWMKGLDDCLQQYIKNFEREKISGDQLLRITHQELEDLGVSRIGHQELILEAVD

Variants of: B1
Test: abundance fitness (aPCA) (normalised: wild type 0, dead -1); higher = more abundant; growth selection in yeast, the domain comes from the species named
Conditions: Homo sapiens

Q: For F26S, which abundance fitness is on record?
A: Its abundance fitness is -0.779 ± 0.025.

Q: With V62A as the variant, how does the abundance fitness read?
A: The abundance fitness was -0.335 ± 0.04.

Q: For V62I, which abundance fitness is on record?
A: Its abundance fitness is -0.047 ± 0.044.

Q: With V62S as the variant, how does the abundance fitness read?
A: The abundance fitness was -0.741 ± 0.048.

Q: Which abundance fitness does the source give for V62H here?
A: Its abundance fitness is -1.04 ± 0.11.

Q: With L47T as the variant, how does the abundance fitness read?
A: Its abundance fitness is -0.805 ± 0.049.

Q: For L47P, which abundance fitness is on record?
A: The abundance fitness was -0.762 ± 0.048.

Q: For L47I, which abundance fitness is on record?
A: Its abundance fitness is 0.003 ± 0.064.

Q: For L47R, which abundance fitness is on record?
A: The abundance fitness was -0.688 ± 0.038.

Q: For L47D, which abundance fitness is on record?
A: Its abundance fitness is -0.857 ± 0.061.

Q: With L47N as the variant, how does the abundance fitness read?
A: Its abundance fitness is -0.783 ± 0.059.

Q: For L47Y, which abundance fitness is on record?
A: Its abundance fitness is -0.72 ± 0.067.

Q: With L47A as the variant, how does the abundance fitness read?
A: Its abundance fitness is -0.681 ± 0.032.

Q: For S6Y, which abundance fitness is on record?
A: The abundance fitness was -0.166 ± 0.034.

Q: With S6T as the variant, how does the abundance fitness read?
A: Its abundance fitness is 0.015 ± 0.033.

Q: Which abundance fitness does the source give for S6A here?
A: The abundance fitness was 0.036 ± 0.023.

Q: Which abundance fitness does the source give for S6E here?
A: Its abundance fitness is -0.033 ± 0.035.

Q: With S6W as the variant, how does the abundance fitness read?
A: The abundance fitness was -0.291 ± 0.04.

Q: With S6C as the variant, how does the abundance fitness read?
A: The abundance fitness was -0.195 ± 0.037.

Q: For P5I, which abundance fitness is on record?
A: The abundance fitness was -0.233 ± 0.062.

Q: Which abundance fitness does the source give for P5G here?
A: Its abundance fitness is -0.37 ± 0.029.

Q: Which abundance fitness does the source give for P5Y here?
A: Its abundance fitness is 0 ± 0.051.

Q: For P5M, which abundance fitness is on record?
A: Its abundance fitness is -0.377 ± 0.044.

Q: With I23S as the variant, how does the abundance fitness read?
A: Its abundance fitness is -0.247 ± 0.029.

Q: Which abundance fitness does the source give for I23C here?
A: Its abundance fitness is -0.014 ± 0.035.

Q: With I23H as the variant, how does the abundance fitness read?
A: The abundance fitness was -0.393 ± 0.082.

Q: With I23L as the variant, how does the abundance fitness read?
A: Its abundance fitness is -0.163 ± 0.028.

Q: For Y22V, which abundance fitness is on record?
A: The abundance fitness was -0.806 ± 0.034.

Q: Which abundance fitness does the source give for Y22G here?
A: Its abundance fitness is -0.702 ± 0.027.

Q: With Y22L as the variant, how does the abundance fitness read?
A: The abundance fitness was -0.899 ± 0.053.

Q: With Y22R as the variant, how does the abundance fitness read?
A: The abundance fitness was -0.728 ± 0.035.

Q: With L59F as the variant, how does the abundance fitness read?
A: Its abundance fitness is -0.358 ± 0.056.

Q: With L59H as the variant, how does the abundance fitness read?
A: Its abundance fitness is -0.657 ± 0.068.

Q: Which abundance fitness does the source give for L59V here?
A: Its abundance fitness is -0.552 ± 0.03.

Q: For L59W, which abundance fitness is on record?
A: Its abundance fitness is -0.758 ± 0.056.

Q: For L59M, which abundance fitness is on record?
A: The abundance fitness was -0.032 ± 0.039.

Q: Which abundance fitness does the source give for L59E here?
A: The abundance fitness was -0.672 ± 0.041.

Q: Which abundance fitness does the source give for L59Y here?
A: Its abundance fitness is -0.61 ± 0.055.

Q: For Q7K, which abundance fitness is on record?
A: Its abundance fitness is -0.227 ± 0.032.

Q: For Q7N, which abundance fitness is on record?
A: Its abundance fitness is -0.331 ± 0.049.

Q: For Q7M, which abundance fitness is on record?
A: Its abundance fitness is -0.12 ± 0.034.

Q: For Q7D, which abundance fitness is on record?
A: Its abundance fitness is -0.07 ± 0.048.

Q: Which abundance fitness does the source give for Q7V here?
A: Its abundance fitness is -0.631 ± 0.032.

Q: With Q7L as the variant, how does the abundance fitness read?
A: The abundance fitness was -0.743 ± 0.033.

Q: For Q7T, which abundance fitness is on record?
A: The abundance fitness was -0.488 ± 0.035.

Q: For I31V, which abundance fitness is on record?
A: The abundance fitness was -0.053 ± 0.027.

Q: For I31P, which abundance fitness is on record?
A: Its abundance fitness is -0.744 ± 0.061.

Q: Which abundance fitness does the source give for I31K here?
A: Its abundance fitness is -0.886 ± 0.063.

Q: With I31D as the variant, how does the abundance fitness read?
A: Its abundance fitness is -0.931 ± 0.1.

Q: For I31Y, which abundance fitness is on record?
A: The abundance fitness was -0.948 ± 0.25.

Q: Which abundance fitness does the source give for Q35E here?
A: The abundance fitness was -0.172 ± 0.057.

Q: Which abundance fitness does the source give for Q35A here?
A: Its abundance fitness is -0.088 ± 0.033.

Q: Which abundance fitness does the source give for Q35L here?
A: The abundance fitness was -0.392 ± 0.039.

Q: For Q35R, which abundance fitness is on record?
A: The abundance fitness was 0.033 ± 0.03.

Q: For K13W, which abundance fitness is on record?
A: Its abundance fitness is -0.339 ± 0.034.

Q: Which abundance fitness does the source give for K13C here?
A: Its abundance fitness is -0.356 ± 0.041.

Q: For K13P, which abundance fitness is on record?
A: The abundance fitness was -0.895 ± 0.075.

Q: For K13M, which abundance fitness is on record?
A: Its abundance fitness is -0.103 ± 0.029.

Q: Which abundance fitness does the source give for K13R here?
A: Its abundance fitness is -0.003 ± 0.028.

Q: Which abundance fitness does the source give for K13A here?
A: The abundance fitness was -0.196 ± 0.03.

Q: With K13T as the variant, how does the abundance fitness read?
A: The abundance fitness was -0.237 ± 0.046.

Q: For K2T, which abundance fitness is on record?
A: The abundance fitness was 0.015 ± 0.03.

Q: For K2C, which abundance fitness is on record?
A: Its abundance fitness is -0.084 ± 0.029.

Q: For K2P, which abundance fitness is on record?
A: Its abundance fitness is -0.167 ± 0.073.

Q: For K2I, which abundance fitness is on record?
A: Its abundance fitness is -0.09 ± 0.027.

Q: With K2L as the variant, how does the abundance fitness read?
A: The abundance fitness was -0.041 ± 0.038.

Q: For K2S, which abundance fitness is on record?
A: The abundance fitness was -0.003 ± 0.025.

Q: With K2H as the variant, how does the abundance fitness read?
A: Its abundance fitness is 0.047 ± 0.047.

Q: With K2E as the variant, how does the abundance fitness read?
A: The abundance fitness was -0.29 ± 0.14.

Q: With L36M as the variant, how does the abundance fitness read?
A: Its abundance fitness is -0.334 ± 0.045.

Q: Which abundance fitness does the source give for L36H here?
A: Its abundance fitness is -0.971 ± 0.12.

Q: With L36P as the variant, how does the abundance fitness read?
A: Its abundance fitness is -0.928 ± 0.069.

Q: For L36K, which abundance fitness is on record?
A: Its abundance fitness is -0.775 ± 0.075.

Q: For L36V, which abundance fitness is on record?
A: The abundance fitness was -0.713 ± 0.044.

Q: With L36R as the variant, how does the abundance fitness read?
A: Its abundance fitness is -0.82 ± 0.038.

Q: Which abundance fitness does the source give for E60V here?
A: The abundance fitness was -0.439 ± 0.029.

Q: With E60Y as the variant, how does the abundance fitness read?
A: The abundance fitness was -0.514 ± 0.047.

Q: For E60S, which abundance fitness is on record?
A: Its abundance fitness is -0.004 ± 0.026.

Q: For E60D, which abundance fitness is on record?
A: Its abundance fitness is -0.012 ± 0.047.

Q: With E60C as the variant, how does the abundance fitness read?
A: Its abundance fitness is -0.187 ± 0.037.

Q: For E60P, which abundance fitness is on record?
A: The abundance fitness was -0.905 ± 0.073.

Q: For E60N, which abundance fitness is on record?
A: The abundance fitness was -0.012 ± 0.04.

Q: Which abundance fitness does the source give for D16R here?
A: The abundance fitness was -0.631 ± 0.025.
